The values below come from patent publication US11628159B2, “Cell-protective compounds and their use” (ETH ZURICH, priority 2017, dated 2023).

One assay relates to GPCR phosphorylation. As to conditions: Lorenz K, et al., Nature 426, 574-579 (2003); read-out: reported IC50 value for RKIP-mediated inhibition of GPCR phosphorylation; cited from earlier work.
For another assay, the target named is T1, GRK2 (Mus musculus, UniProt Q99MK8).
T1 construct: from tissue; host or cells: heart lysate of Tg-RKIP mice
T1 sequence (Q99MK8 1-689): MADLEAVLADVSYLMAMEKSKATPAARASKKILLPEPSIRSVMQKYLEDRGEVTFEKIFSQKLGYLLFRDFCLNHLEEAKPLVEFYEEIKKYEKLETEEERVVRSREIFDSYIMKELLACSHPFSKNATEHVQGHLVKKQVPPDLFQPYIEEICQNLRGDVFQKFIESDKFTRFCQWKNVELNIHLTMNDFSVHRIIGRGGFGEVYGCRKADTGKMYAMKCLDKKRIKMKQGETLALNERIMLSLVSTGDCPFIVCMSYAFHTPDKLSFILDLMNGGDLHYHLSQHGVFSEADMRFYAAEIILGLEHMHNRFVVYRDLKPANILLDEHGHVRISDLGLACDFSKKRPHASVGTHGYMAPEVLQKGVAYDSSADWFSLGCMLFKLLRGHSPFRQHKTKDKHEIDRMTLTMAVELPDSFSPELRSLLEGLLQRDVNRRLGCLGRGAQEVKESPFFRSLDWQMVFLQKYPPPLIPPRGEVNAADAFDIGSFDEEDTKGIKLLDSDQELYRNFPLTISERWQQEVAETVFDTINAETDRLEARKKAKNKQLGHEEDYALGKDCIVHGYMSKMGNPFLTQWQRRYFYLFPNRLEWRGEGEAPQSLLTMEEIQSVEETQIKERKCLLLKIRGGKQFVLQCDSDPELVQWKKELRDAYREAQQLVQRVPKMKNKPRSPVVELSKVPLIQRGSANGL
In words: Depletion of GRK2 from Tg-RKIP heart lysates by affinity purification of RKIP. As to conditions: serine-153 phosphorylated transgenic RKIP, n=4. The format is binding. The text has this:
A, Immunoblot detection of serine-153 phosphorylation of RKIP (pS153) in Tg-RKIP and B6 control hearts (n=5 mice/group). B, Removal of RKIP by affinity purification (AP) with immobilized RKIP-specific antibodies depletes the GRK2 protein from Tg-RKIP heart lysates. A control affinity purification with unrelated antibodies did neither deplete RKIP nor GRK2. Upper panels show representative experiments and lower panels show quantitative data evaluation (±s.d., n=4; *, p=0.0286; Mann Whitney Test). C, Isoproterenol-stimulated cAMP response in neonatal cardiomyocytes from Tg-RKIP and Tg-GRK2-K220R mice (n=6; ±s.d.).
The GRK2-inhibitory activity of transgenic RKIP (human RKIP˜PEBP1) was controlled in vivo. The phosphorylation of RKIP on serine-153 switches RKIP from Raf1 inhibition to GRK2 inhibition (Lorenz K, et al., Nature 426, 574-579 (2003)). Substantial serine-153 phosphorylation of RKIP was documented by immunoblot detection in Tg-RKIP hearts (FIG. 7A). […] We determined the GRK2 inhibition-mediated resensitization of the isoproterenol-stimulated cAMP response in neonatal cardiomyocytes as readout for GRK2 inhibition by RKIP and GRK2-K220R, respectively (Abd Alla, J, et al., J. Biol. Chem. 291, 2583-2600 (2016); Kong K C, et al., Biochemistry 47, 9279-9288 (2008)).

B1: RKIP: raf kinase inhibitor protein, a dual-specific GRK2 and Raf kinase inhibitor (protein, UniProt P30086 2-187, looked up)
Phosphatidylethanolamine-bindi …: PVDLSKWSGPLSLQEVDEQPQHPLHVTYAGAAVDELGKVLTPTQVKNRPTSISWDGLDSGKLYTLVLTDPDAPSRKDPKYREWHHFLVVNMKGNDISSGTVLSDYVGSGPPKGTGLHRYVWLVYEQDRPLKCDEPILSNRSGDHRGKFKVASFRKKYELRAPVAGTCYQAEWDDYVPKLYEQLSGK
What is called IC50 is the concentration that inhibits the measured activity by half. B1: the IC50 in the assay on GPCR phosphorylation was 460 nM. Further, the “GRK2 protein bound and neutralized in Tg-RKIP hearts” value with GRK2 is given as 90.4%.
